Positions count from the first letter of the chain named.
T1: Soluble ASGR-1 (recombinant, biotinylated) (human, UniProt P07306 62-291, limits assumed, biotinylated)
T1 construct: also called recombinant, soluble ASGR-1 biotinylated protein
T1 sequence: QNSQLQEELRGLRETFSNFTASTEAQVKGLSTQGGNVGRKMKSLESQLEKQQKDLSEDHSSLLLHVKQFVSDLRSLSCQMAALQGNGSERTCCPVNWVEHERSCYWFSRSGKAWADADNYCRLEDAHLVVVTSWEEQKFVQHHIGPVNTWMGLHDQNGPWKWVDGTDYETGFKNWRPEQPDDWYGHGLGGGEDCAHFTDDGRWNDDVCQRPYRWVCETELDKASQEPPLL

B1: 202A3 (antibody, V domains shown)
VH: QVQLEQSGAEVKKPGASVKVSCKASGYTFTSYDINWVRQATGQGLEWLGWMNPKRGNTGYAQKFQGRVTMTRNTSISTAHMELSSLRSEDTAVYYCARGRYSREDYYYYYDMDVWGQGTTVTVSS
VL: DIQMSQSPSSLSASVGDRVTITCRASQGIRNDLGWYQQKPGKAPKRLICAASRLQSGVPSRFSGSGSGTEFTLTISSLQPEDFAIYYCLQHHDYPFTFGPGTKVDIK
notes: Tested as hybridoma supernatant
B2: 6G7 (antibody, V domains shown)
VH: QVQLVESGGGVVQPGRSLRLSCAASGFTFSSYGMHWVRQTPGKGLEWVAIISYVGKNKYYADSVKGRFTISRDNSKNTLYLQMNSLRAEDTAVYYCARRGNSYGGYGMDVWGQGTTVTVSS
VL: DIQMTQSPSSRSASVGDRVTITCQASQDISNYLNWCQQKPGKALKLLIYDASTLETGVPSRFSGSGSGTDFTFTISSVQPEDIATYYCQQYDNVPITFGQGTRLEIK
notes: as for B1
B3: 194C10 (antibody, V domains shown)
VH: QVQLQQWGAGLLKPSETLSLTCAVSGGSFRYYYWSWIRQPPGKGLEWFGEINHSGSTNYNPSLKSRVTISIDTSKNQFSLKLRSVTAADTAVYYCARDYGAFDIWGQGTMVTVSS
VL: EIVLTQSPGTLSLSPGERATLSCRASPSVNSGYLAWYQQKPGQTPRLLIFGASSRATGIPDRFSASGSGADFTLTISRLEPEDFAVYFCQQYESSPWTFGQGTKVEIK
notes: as for B1
B4: 193E7 (antibody, V domains shown)
VH: QVQLQQWGAGLLKPSETLSLTCAVYGGSFSGYFWTWIRQPPGKGLEWIGEINHSGSTNYNPSLKSRVTISVDTSKNQFSLKLSSVTAADTAVYYCARDYGADYWGQGTLVAVSA
VL: DIQMTQSPSSLSASVGDRVTITCRASQGIRNDLGWYQQKPGKAPKRLIYSASSLQRGVPSRFSGSGSGTEFTLTISSLQPEDFATYYCLQHKRYPLTFGGGTKVEIK
notes: as for B1
B5: 7F4 (antibody, V domains shown)
VH: QLQLQESGPGLVKPSETLSLTCTVSGGSISRSSYYWGWIRQPPGKGLEWIGNIYYSGATYYNPSLKSRVTISVDTSTNQFSLKLSSVTAADTAVYYCARHSGSWSLDYWGQGTLVTVSS
VL: B4 VL with A25T, S50A, S53N, R56S, K92S, R93A
notes: as for B1
B6: 218G4 (antibody, V domains shown)
VH: QVQLVESGGGVVQPGRSLRLSCAASGFTFSSYGLHWVRQAPGKGLEWVAVIWYDGSNKYYADSVKGRFTISRDNSKNTLYLQMNSLRVEDTAVYYCANWYYYYYGMDVWGQGTTVTVSS
VL: QSVLTQPPSVSAAPGQKVTISCSGSSSNIGNNYVSWYQQLPGTAPKLLLYDSNKRPSGIPARFSGSKSGTSATLGITGLQTGDEADYYCGTWDSSLNTVVFGGGTKLTVL
notes: as for B1
B7: 198D2 (antibody, V domains shown)
VH: QVQLVESGGGVVQPGRSLRLSCAASGFTFRSYGMHWVRQAPGKGLEWVAVIIYDGSYKYYADSVKGRFTISRDNSKNTLYLQMNSLRAEDTAVYYCARTYSGGMDVWGQGTTVTVSS
VL: B6 VL with N31S, L47V, L49I, S52N, A61D, S95R, T98V, V99G
notes: as for B1
B8: 12D2 (antibody, V domains shown)
VH: EVQLVESGGGLVKPGGSLRLSCAASGFTFSSYSMNWVRQAPGKGLEWVSSISSSSSYIYYADSVKGRFTISRDNAKNSLYLQMNSLRAEDTAVYYCARLGDYWGQGTLVAVSS
VL: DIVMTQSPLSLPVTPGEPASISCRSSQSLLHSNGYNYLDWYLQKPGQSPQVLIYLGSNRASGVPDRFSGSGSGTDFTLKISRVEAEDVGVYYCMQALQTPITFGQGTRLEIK
notes: as for B1
B9: 72G9 (antibody, V domains shown)
VH: EVQLVESGGGLVKPGGSLRLSCAASGFTFSSYSMNWVRQAPGKGLEWVSSISGSSSYIYYADSVKGRFTISRDNAKNSLYLQMNSLRAEDTAVYFCARGGSRGFDPWGQGTLVTVSS
VL: DIQMTQSPSSLSASVGDRVTITCRASQSITSYLNWYQQKPGKAPKLLIYTASSLQSGVPSRFSGSGSGTDFTLTISSLQPEDFATYYCQQSHSFPFTFGPGTKVDIK
notes: as for B1
B10: 56E5 (antibody, V domains shown)
VH: QVQLVQSGAEVKKPGASVKVSCQASGYTFTGYHMHWVRQAPGQGLEWMGWINPNNNATNYAQKFQGRVTMTRDTSISTAYMELRRLRSDDTAVYHCARDGTSSFDYWGQGTLVTVSS
VL: B9 VL with L11V, S28G, T30R, S31K, Y32W, N34A, T50A, S91A, H92N
notes: as for B1
B11: 176H4 (antibody, V domains shown)
VH: QVQLVESGGGVVQPGRSLRLSCAASGFTFSSYGMHWVRQAPGKGLEWVAIIWYDGSYKYYADSVKGRFTISRDNSKNTLYLQMSSLRAEDTAVYYCARDAHDFWSGYFAYWGQGALVTVSS
VL: DIVMTQTPLSLSVTPGQPASISCKSSQSLLHGDGKTYLYWYLQKPGQPPQLLIYEVSNRFSGVPDRFSGSGSGTDFTLKISRVEAEDVGIYYCMQSIQIPWTFGQGTRVEIK
notes: as for B1

Biological target: T1, Soluble ASGR-1 (recombinant, …)
Assay: limiting antigen bead FACS; biotinylated soluble ASGR-1 coated at 2.5 ng/mL on LumAvidin beads;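 also: hybridoma supernatants of ligand-competing antibodies bound to antigen-loaded beads, read by flow cytometry on an iQue Screener in calcium-containing buffer, higher fluorescence meaning stronger relative affinity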

Row | Binder | FACS Geomean
1 | B1 | 2150
2 | B2 | 2290
3 | B3 | 21900
4 | B4 | 18300
5 | B5 | 4910
6 | B6 | 15100
7 | B7 | 1870
8 | B8 | 105
9 | B9 | 34000
10 | B10 | 22600
11 | B11 | 29400

— US20210163601A1 (Amgen, published 2021)
